From the DeepSol protein solubility set come the findings set out here.

This data set can be described thus: soluble on expression in E. coli; label from the status in PepcDB or PDB records.
Take “MGSDKIHHHHHHMAKNKALFECQACGNQQSKWLGKCPDCGAWDSFVELKAEQIKVLKELAQVSMKTSEAVCIEDVELEHFTRYSTDDNELDLVLGGGLVEGSLVLIGGSPGVGKSTLLLKIASNLAKQGKKVLYVSGEESKAQIKLRADRLEANTPNLFLLTELCLENILEELHKKDYSILIVDSIQTLYSNKITSAAGSITQVREITFELMRVSKAYNISTFIIGHITKEGAIAGPRVLEHMVDVVLYFEGDATKEIRLLRGFKNRFGGTNEVGIFEMTAKGLISAKDLANRFFTRGKAISGSALGVVMEGSRALVLEVQALVCESSYPKRSATGYEKNRLDMLLALLERKLEIPLGHYDVFVNISGGVKVSETAADLAVVAAIISSFKNRPLSKDSIFIGELSLNGEIREVFSLDTRLKEAKMQKFKNAIVPSKPLEDIGLKCFVAKELSQVLEWM”: the “soluble on expression in E. coli” value is recorded as “not soluble”.
Consider “AVLDLDVRTCLPCGPGGKGRCFGPSICCGDELGCFVGTAEALRCQEENYLPSPCQSGQKPCGSGGRCAAAGICCSPDGCEEDPACDPEAAFS”, for which the “soluble on expression in E. coli” value is recorded as “soluble”.
For the sequence “GSDDNKTTGATYDPNQPVTVESFMPVEGKLREKVIVKGSNFGTDKSKVKVYFVDEAAERLSTVIGIDNNTLYCLAPRQLPGGNRIKVIVDGKEVTTDGTFKYEQAQNVSTISGSASKDGNDDGDLASAKFKYMWGIAAVGNNTVLAYQRDDPRVRLISVDDNKVTTVHPGFKGGKPAVTKDKQRVYSIGWEGTHTVYVYMKASGWAPTRIGQLGSTFSGKIGAVALDETEEWLYFVDSNKNFGRFNVKTQEVTLIKQLELSGSLGTNPGPYLIYYFVDSNFYMSDQNLSSVYKITPDGECEWFCGSATQKTVQDGLREEALFAQPNGMTVDEDGNFYIVDGFKGYCLRKLDILDGYVSTVAGQVDVASQIDGTPLEATFNYPYDICYDGEGGYWIAEAWGKAIRKYAVE”, the “soluble on expression in E. coli” value is reported as “soluble”.
For “LNDPLDSGRFSRKQLDKKYKHAGDFGISDTKKNRETLTKFRDAIEEHLSDKDTVEKGTYRREKGSKVYFNPNTMNVVIIKSNGEFLSGWKINPDADNGRIYLETGEL” the value was “soluble”.
Under “MGSDKIHHHHHHMSDKTKELRNKYNSKNRHKNFGPCLRKVHIEGFRGVQSADLELEFPITAISGLNGSGKSTVGQLAICAYKKPDKSMTYKRLYIKDFFPVSPADPKPISDSAKVVYFYETDDYQKPKEVTVSRVKSSWSGYKRQPERYCYYIGFTVYLPKVERRDLSVYAGVNLQFTEKRDIEAEVVKKMARIIGHKYENVAFQGVSHNGKESEVGIAYRLGYSYSENNMGFGEGRILYTIDKLESSPEQSLFILEEPETSLHESAQHEFAKYLLDVCNRRHHQIILSTHSSVIVNALPPESRKLMIRDEGGVDIRNKISSGQLRSILSSGHVRSLDICVEDNFAKVLLIEVIRMKRKALLKIVEIHAIGSTDAVREAVRILKKTGKKAIAVRDADIGPSEKEGLYSFPGNKPPEKEVFEHSAVKAFFKSKYDLDVEWFFQYKNVSDHHYYAKCIASEIASDESVIQTSAIEEYLKHVNNNFDYLIDAIEKELDNHN” stands “not soluble”; under “GPHMADLLLNSTQFVQAFTYLIQNDKEFANKLHKAYLNGCSNLLLD”, “soluble”; under “MNLLPYQFVGEVVRGFGRGGKELGCPTANMDGTVVNGLPEGLPVGVYFGTAKLDGKSYKMAMSIGWNPQYQNEKKTVELHLIDYSGSDFYGKTLSAVIIGFIREMKSFESLDELKSAIAMDIKVARRGSVEQGKL”, “not soluble”.
For “MGFMIEHWDFSTPMATQETTTAEHIQPNHWYHCERLHPDIRSWLEDNHVPRATVDHLLADESRPSFHPLDDDNFMLILRGINMNENASPEDMLSIRILYFQGALISTRKIPSRAIMEIRQALAEHKGPKSLASLLNQIIEGLNGKIDLYLDTIEETLNEFDVNDESTYNHIAAQKALISIKRFIRPQQYAIRDLIESESELVTSRPHQYRFAHNNITRINETIEFYLGEVALFQDEIKHNRDEKTNKNSYLFTLVATIFLPTSFLTGLL” the value was “not soluble”.
“MGFKTVAKEEKQQLVANVFHSVAAKYDLMNDLLSFGIHRIWKRFTIDCSGVRKGQKVLDLAGGTGDFSAKFSRIVGETGQVVLADINSSMLEVGRDKLRNLGVVGNINYVQANAEHLPFADNTFDCVVISFGLRNVTDKDKALKSMYRVLKPGGRLLVLEFSKPIFDPISQLYNFYSFNILPKVGGIVVNDAESYRYLAESIRMHPKQDELKTMMEHAGFESVNYYNLSAGIVALHRGYKLEHHHHHH”: the “soluble on expression in E. coli” value is recorded as “not soluble”.
Under “MSLKIKLETYYVCKGELAMNPEVSQLLEQIELRKDELLELTKTLIRFETPAPPARNTNEAQQFVADFLRKRNFSVDKWDVYPNDPNVVGVKKGIESETHKSLIINGHMDVAEVSADEAWEKNPFEPFIKDGWLVGRGAADMKGGLAGALFAIQLLEEAGIELPGDLIFQSVIGEEVGEAGTLQCCRRGYDADFAVVVDTSDLHMQGQGGVITGWITVKSPQTFHDATRRQMIHAGGRLFGASAIEKMMKIVQSLQELERHWAVMKTYEGYPSGTTTINPAVIEGGRHAAFIADECRLWITVHFYPNETHEQIIKEIEEYIGKVAAADPWLSENPPQFKWGGESMIVDRGEIFPSLEIDSEHAAVKTLSSVHESVLSKHAILDMSATVTDGGWFSEFHIPAVIYGPGTLEEAHSINEKVEVEQLIEFTKVITAFIYEWCHTKEGHHHHHH” stands “soluble”; under “MTSVGPGQPQKELIRAQNGTYEVTKPLATGTFGSIYKVKRESDGKFFAVKCEALNMKSSLLRQMSVVLASIHHPSPFFTNIEERGTVPNRFLFIVMPLYGENLYELMMNTNKDRKFSMATGLHLAEQTLAAIRDLHRNGFIHRDIKPSHFCIGREIDGQHHQVYLLDFGLCKRPRFVKKNDEAEEQMRKNAIHYRGVVKYASVHAHQGKNLGYKDDMESWWYMVLEFFLGALPWALLNKESEQDVLHLKRRITAPMVASVWRTTPETTAGFFDLLTIIREPKDVAEFVEYDRIADGIQKLFEKSKSNTQEPPDWDCMTDYKGPGYQQVLMIAPPEVGLKPEMDFGKSDPGAGGESGEQPKKEDVDKKKKKKKKSKKKGKSNNKTTSAEEQKGGKCAPPSRVRDERRETRDETVCEIETRSR”, “not soluble”; under “AVSDQRLSEATLRELEDERQRAGLPEKPEIPEGWTIDRKPGVTHFTMRKSHGDEEIILQLTGEDRSNEEITRTLDVLVVNGGKALVFGMSVEDGEFVINNVCFRHDGKLALDTSAEAQFQKSQLYMGPDLADLEDHLVDSFTSYLSARGVNDTLANFIDQFSLWSEQADYEEWLSSINKFVS”, “soluble”.
For “MSLAPALKAEILAQALPYIRKFHGKTIVIKYGGNAMTEEKLKHGFARDVILLKLVGMNPVVVHGGGPQIDDALKKVGKTGTFIQGMRVTDEETMEVVEWVLGGEVQQDIVMLINQYGGQAVGLTGKDGGLIRAKKLKMPDREQPGQFIDIGFVGDIETINPAVVRALQDDAFIPVISPIGFSDDGQAYNINADVVAGKMAEILKAEKLVMMTNIPGVMDKQGNLLTDLSAREIDELFADGTISGGMLPKISSALDAAKSGVNSVHIIDGRIEHSLLLEILTEQAFGTMIRSHEGHHHHHH” the value was “not soluble”; for “MGSDKIHHHHHHMTKARKVLVSALCFTALIGEAAVGREQVVLKPSGQWNINYADESCQLARTFGVGDQKTLVQFERFGPENGFALMIVSPLLKFQENFRAVPNRMLHPTKRQYLDTVFQFLPGGEPYKQPGIPAMDAASRQPTLMAFLSLEGPRKDAAPTATGTASASEDRKLTNEERLALEKATNALLVEQPFNDPIRFELGSLAQPFATLAACTDDLVRSWGLQTDPEHAAVNPPKPIGSPSEWFDDKKLAERVWSKRENAIIYFRMIVSDKGAPESCVIQDSSQTTELRDLSCRALMGKARFTPGTNAAGQSVRSVYRGAVRYFTSRN”, “not soluble”.
“INAGTDLDNPKDLEVSDPTETTLSLRWRRPVAKFDRYRLTYVSPSGKKNEMEIPVDSTSFILRGLDAGTEYTISLVAEKGRHKSKPTTIKGSTVVGSPKGISFSDITENSATVSWTPPRSRVDSYRVSYVPITGGTPNVVTVDGSKTRTKLVKLVPGVDYNVNIISVKGFEESEPISGILKTALDS”: the “soluble on expression in E. coli” value is on record as “soluble”.
For “MVTCGSIFIIRIACKDKKGQASGKDNKEKRVFRAVTGNKSESYFPFGHIFIFSQGATRTDEKSFLLSEDYEPKTVGLRCVFWRKHAREIFRFGSKNFYFSRHNEKIFAPRLFQPYSGFFSNDKREKVSMCHR” the value was “not soluble”; for “GSMAEGSAVSDPQHAARLLRALSSFREESRFCDAHLVLDGEEIPVQKNILAAASPYIRTKLNYNPPKDDGSTYKIELEGISVMVMREILDYIFSGQIRLNEDTIQDVVQAADLLLLTDLKTLCCEFLEGCIAAENCIGIRDFALHYCLHHVHYLATEYLETHFRDVSSTEEFLELSPQKLKEVISLEKLNVGNERYVFEAVIRWIAHDTEIRKVHMKDVMSALWVSGLDSSYLREQMLNEPLVREIVKECSNIPLS”, “soluble”.
Under “MTSDTFPQLPLSYWIESTQFPTFPRLSENIKTKVAIIGAGITGITTAYLLAKEGIDVVLIDSGRILNGTTGHTTAKVTAQHDLIYDELINHFGVEKARLYYESNNQALQFINKTVQTYKIDCNFSNEDSYLYTTTDNGLRNLSKEYEAYQKLNIPCDYVQSLSIPIPVQSALVMKNQAQFHPLLYLKTLLEKFVEMGGKVYEQTTAMDVEKGDYSQIITKEGHHITCEYVVSCSHFPFYDANSFFFTRMYAERSYALAIKAKTEYPGGMYLSIDDPKRSLRYITNNGEKLILIGGESHKTGQGINTMLHYEALYSFAEATFGIDEVSYRWSAQDLITLDKLPYIGHINERNPNIFVATGYRKWGMTTGTAAAHLLKDSILKVHSPYKELYAPSRFHANPDIKTFLSQNIDVAKHLIAGKIETALRKPEDLEVGEGSVVHVNGKRAGAYKDKEGKLHIVDTTCTHLGCEVEWNNGDCTWDCPCHGSRFSIEGDVLEGPADQPLKRVDNELEHHHHHH” stands “soluble”; under “MGSDKIHHHHHHMVQTVYKNSDQTVFEDAKALFQLNKNILLKGPTGSGKTKLAETLSNVMKLPMHQVNCSVDLDTESLLGFKTIHTNEEGHQEIVFIDGPVIKAMKEGHILYIDEINMAKPETLPILNGVLDYRRQLTNPYTGEVIKAAPGFNVIAAINEGYVGTLPMNEALKNRFIVIEVDYIDGDILKTVIKEQSKLQDEQLIQHIVKFNEDLRTMTKQGQISEEAASIRALIDLSDLATVMPIERAVQRTIIDKLEDEREQQAILNAIELNF”, “not soluble”; under “MSLEELPRFFTQNGRHALLVDGAPYTILAAQLHNSSAWPAVLPPALDQVVALHANTVEAPVYWEQFEPAPGRFDTTNVDALIAGARKRGLRVALLWFGSWKNGQMHYVPEWIKRDEATYPRMRDANGEPVDVLSPHVAANVQADARAFTALMQHLRKVDGDRHTVIVVQVENEPGAIGTVRDHGPAGEAAFAQPVPAGIAAALGKPAGSWQQLFGAEAAEAFNAHATAAYIEQVAAAGKRVYPLPLYVNTWLRYKGKRYPGMDYPSGGATVNVFALWRAATPSIDFIGTDIYTSDYGEYTKVIGQYAREGHHHHHH”, “soluble”.
Under “MGSDKIHHHHHHMKHYEAYGIATRNTKIQGQFYRLADEEVFIHHFEPLQKNNDIILLLHGYMDHSLTSARLINRLISEGFEVVALDWPGHGLSKGETYHIRSFRQYNTIFLQLVQDMIERWGSDRIHLIAHSTGAGVVLDGLTNNLKKMPTGGIVLTSPLIKLPSHRIGKLFLPFVRKWRKQVRRIYRTNSSDPLFMKAIEEDPLQHEVIPLTWFDAYLQWHEDMRRRAKCSAENVTILQGTRDTTVHWKANMKWLAETLPSAERILIDGGGHHLWNEGDLIRELVFRFILKRLKKT” stands “not soluble”.
